Results as given in paper PMC7954794 (2021).

B1: S. cerevisiae Abp1 (full length; SH3 domain 535-592 mutated) / Hua2 (parent complex)
chain 1: MALEPIDYTTHSREIDAEYLKIVRGSDPDTTWLIISPNAKKEYEPESTGSSFHDFLQLFDETKVQYGLARVSPPGSDVEKIIIIGWCPDSAPLKTRASFAANFAAVANNLFKGYHVQVTARDEDDLDENELLMKISNAAGARYSIQTSSKQQGKASTPPVKKSFTPSKSPAPVSKKEPVKTPSPAPAAKISSRVNDNNDDDDWNEPELKERDFDQAPLKPNQSSYKPIGKIDLQKVIAEEKAKEDPRLVQKPTAAGSKIDPSSDIANLKNESKLKRDSEFNSFLGTTKPPSMTESSLKNDDDKVIKGFRNEKSPAQLWAERKAKQNSGNAETKAEAPKPEVPEDEPEGEPDVKDLKSKFEGLAASEKEEEEMENKFAPPPKKSEPTIISPKPFSKPQEPVKAEEAEQPKTDYKKIGNPLPGMHIEADNEEEPEENDDDWDDDEDEAAQPPLPSRNVASGAPVQKEEPEQEEIAPSLPSRNSIPAPKQEEAPEQAPEEEIEEEAEEAAPQLPSRSSAAPPPPPRRATPEKKPKENPWATAEYDYDAAEDNELTFVENDKIINIEFVDDDWWLGELEKDGSKGLFPSNYVSLGN
chain 2: MQQTKFGKMYLDHDSVVEYSEDEIVEADRITLGYKKRLSMIENQMRHLLEDFSLDVQQIEPILADLQKYYDAFLQLLQKRNKSLQCKRSTHQPVPSPMNSQTSTNAKVNLSGKLMKFQLNSVQKFDEENILRILQNKIEFEHYFQIDKGKKQKVLLLAVYQCLNGPTRLHKVLNIEGIIHNNSIRTILGKQVSSSKWTVFLYDVKLVLLAHRQDVPNLETSKMIVRYGDLFPCALYFKDHTAY

Variants of: B1
Assay: DHFR protein-fragment complementation in yeast (Abp1-DHFR F[1,2] x partner-DHFR F[3]), deep mutational scanning, second methotrexate selection vs reference; S. cerevisiae, DHFR-PCA selection in liquid with methotrexate at 30 C, two 72 h selections (the score uses the second); reference = the pre-selection culture

Row | Variant | screen value
1 | chain 1 MALEPIDYTTHSREIDAEYLKIVRGSDPDTTWLIISPNAKKEYEPESTGSSFHDFLQLFDETKVQYGLARVSPPGSDVEKIIIIGWCPDSAPLKTRASFAANFAAVANNLFKGYHVQVTARDEDDLDENELLMKISNAAGARYSIQTSSKQQGKASTPPVKKSFTPSKSPAPVSKKEPVKTPSPAPAAKISSRVNDNNDDDDWNEPELKERDFDQAPLKPNQSSYKPIGKIDLQKVIAEEKAKEDPRLVQKPTAAGSKIDPSSDIANLKNESKLKRDSEFNSFLGTTKPPSMTESSLKNDDDKVIKGFRNEKSPAQLWAERKAKQNSGNAETKAEAPKPEVPEDEPEGEPDVKDLKSKFEGLAASEKEEEEMENKFAPPPKKSEPTIISPKPFSKPQEPVKAEEAEQPKTDYKKIGNPLPGMHIEADNEEEPEENDDDWDDDEDEAAQPPLPSRNVASGAPVQKEEPEQEEIAPSLPSRNSIPAPKQEEAPEQAPEEEIEEEAEEAAPQLPSRSSAAPPPPPRRATPEKKPKENPWATAEYDYDAAEDNELTFVENDKIINIEFVDDDWWLGEREKDGSKGLFPSNYVSLGN [chain 1 L574R] | 0.641 DMS score: mean over two replicates of log2(f_test/f_ref + 0.5)/ln 2, minus the synonymous-codon median (not a log2 …
2 | chain 1 MALEPIDYTTHSREIDAEYLKIVRGSDPDTTWLIISPNAKKEYEPESTGSSFHDFLQLFDETKVQYGLARVSPPGSDVEKIIIIGWCPDSAPLKTRASFAANFAAVANNLFKGYHVQVTARDEDDLDENELLMKISNAAGARYSIQTSSKQQGKASTPPVKKSFTPSKSPAPVSKKEPVKTPSPAPAAKISSRVNDNNDDDDWNEPELKERDFDQAPLKPNQSSYKPIGKIDLQKVIAEEKAKEDPRLVQKPTAAGSKIDPSSDIANLKNESKLKRDSEFNSFLGTTKPPSMTESSLKNDDDKVIKGFRNEKSPAQLWAERKAKQNSGNAETKAEAPKPEVPEDEPEGEPDVKDLKSKFEGLAASEKEEEEMENKFAPPPKKSEPTIISPKPFSKPQEPVKAEEAEQPKTDYKKIGNPLPGMHIEADNEEEPEENDDDWDDDEDEAAQPPLPSRNVASGAPVQKEEPEQEEIAPSLPSRNSIPAPKQEEAPEQAPEEEIEEEAEEAAPQLPSRSSAAPPPPPRRATPEKKPKENPWATAEYDYDAAEDNELTFWENDKIINIEFVDDDWWLGELEKDGSKGLFPSNYVSLGN [chain 1 V554W] | -0.15 DMS score: mean over two replicates of log2(f_test/f_ref + 0.5)/ln 2, minus the synonymous-codon median (not a log2 …
3 | chain 1 MALEPIDYTTHSREIDAEYLKIVRGSDPDTTWLIISPNAKKEYEPESTGSSFHDFLQLFDETKVQYGLARVSPPGSDVEKIIIIGWCPDSAPLKTRASFAANFAAVANNLFKGYHVQVTARDEDDLDENELLMKISNAAGARYSIQTSSKQQGKASTPPVKKSFTPSKSPAPVSKKEPVKTPSPAPAAKISSRVNDNNDDDDWNEPELKERDFDQAPLKPNQSSYKPIGKIDLQKVIAEEKAKEDPRLVQKPTAAGSKIDPSSDIANLKNESKLKRDSEFNSFLGTTKPPSMTESSLKNDDDKVIKGFRNEKSPAQLWAERKAKQNSGNAETKAEAPKPEVPEDEPEGEPDVKDLKSKFEGLAASEKEEEEMENKFAPPPKKSEPTIISPKPFSKPQEPVKAEEAEQPKTDYKKIGNPLPGMHIEADNEEEPEENDDDWDDDEDEAAQPPLPSRNVASGAPVQKEEPEQEEIAPSLPSRNSIPAPKQEEAPEQAPEEEIEEEAEEAAPQLPSRSSAAPPPPPRRATPEKKPKENLWATAEYDYDAAEDNELTFVENDKIINIEFVDDDWWLGELEKDGSKGLFPSNYVSLGN [chain 1 P535L] | 0.129 DMS score: mean over two replicates of log2(f_test/f_ref + 0.5)/ln 2, minus the synonymous-codon median (not a log2 …
4 | chain 1 MALEPIDYTTHSREIDAEYLKIVRGSDPDTTWLIISPNAKKEYEPESTGSSFHDFLQLFDETKVQYGLARVSPPGSDVEKIIIIGWCPDSAPLKTRASFAANFAAVANNLFKGYHVQVTARDEDDLDENELLMKISNAAGARYSIQTSSKQQGKASTPPVKKSFTPSKSPAPVSKKEPVKTPSPAPAAKISSRVNDNNDDDDWNEPELKERDFDQAPLKPNQSSYKPIGKIDLQKVIAEEKAKEDPRLVQKPTAAGSKIDPSSDIANLKNESKLKRDSEFNSFLGTTKPPSMTESSLKNDDDKVIKGFRNEKSPAQLWAERKAKQNSGNAETKAEAPKPEVPEDEPEGEPDVKDLKSKFEGLAASEKEEEEMENKFAPPPKKSEPTIISPKPFSKPQEPVKAEEAEQPKTDYKKIGNPLPGMHIEADNEEEPEENDDDWDDDEDEAAQPPLPSRNVASGAPVQKEEPEQEEIAPSLPSRNSIPAPKQEEAPEQAPEEEIEEEAEEAAPQLPSRSSAAPPPPPRRATPEKKPKENPWATAEYCYDAAEDNELTFVENDKIINIEFVDDDWWLGELEKDGSKGLFPSNYVSLGN [chain 1 D542C] | 0.23 DMS score: mean over two replicates of log2(f_test/f_ref + 0.5)/ln 2, minus the synonymous-codon median (not a log2 …
5 | chain 1 MALEPIDYTTHSREIDAEYLKIVRGSDPDTTWLIISPNAKKEYEPESTGSSFHDFLQLFDETKVQYGLARVSPPGSDVEKIIIIGWCPDSAPLKTRASFAANFAAVANNLFKGYHVQVTARDEDDLDENELLMKISNAAGARYSIQTSSKQQGKASTPPVKKSFTPSKSPAPVSKKEPVKTPSPAPAAKISSRVNDNNDDDDWNEPELKERDFDQAPLKPNQSSYKPIGKIDLQKVIAEEKAKEDPRLVQKPTAAGSKIDPSSDIANLKNESKLKRDSEFNSFLGTTKPPSMTESSLKNDDDKVIKGFRNEKSPAQLWAERKAKQNSGNAETKAEAPKPEVPEDEPEGEPDVKDLKSKFEGLAASEKEEEEMENKFAPPPKKSEPTIISPKPFSKPQEPVKAEEAEQPKTDYKKIGNPLPGMHIEADNEEEPEENDDDWDDDEDEAAQPPLPSRNVASGAPVQKEEPEQEEIAPSLPSRNSIPAPKQEEAPEQAPEEEIEEEAEEAAPQLPSRSSAAPPPPPRRATPEKKPKENPWATAEYDYDATEDNELTFVENDKIINIEFVDDDWWLGELEKDGSKGLFPSNYVSLGN [chain 1 A546T] | 0.35 DMS score: mean over two replicates of log2(f_test/f_ref + 0.5)/ln 2, minus the synonymous-codon median (not a log2 …
